Laboratory results reported in patent US20200148732A1 (UNIVERSITY OF COPENHAGEN, published 2020).
Substitutions are numbered along the chain they refer to. Each block holds one binder with its values, some of them ahead of it. Where no end group is shown, it is not given here.

Experiments:
[1] = target: T1, TONSL Ankyrin Repeat Domain (ARD, residues 512-692), purified recombinant (human, UniProt Q96HA7 512-692); experiment: native MS, titration Kd (constant peptide to protein ratio, decreasing protein concentration)
T1 construct: Expressed as a GST fusion in E. coli; Used in ITC, peptide pull-down and native MS; also called TONSL ARD; TONSL-ARD
T1 sequence: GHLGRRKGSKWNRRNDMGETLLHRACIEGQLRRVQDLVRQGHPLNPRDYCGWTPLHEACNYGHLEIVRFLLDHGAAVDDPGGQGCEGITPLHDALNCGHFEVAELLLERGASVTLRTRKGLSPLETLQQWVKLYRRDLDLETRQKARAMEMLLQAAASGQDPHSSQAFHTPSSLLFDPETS
Experimental: (§1) The mass spectrometry (MS) analysis were carried out on an electrospray time-of-flight mass spectrometer (LCT, Waters, Manchester, UK) equipped with an automated chip-based nanoESI device (Triversa Nanomate, Advion Biosciences, Ithaca, N.Y.). External calibration was done in the positive ion mode over the mass range m/z 200-6000 using the multiply charged ions produced by 0.4 μM horse heart myoglobin solution diluted in water/acetonitrile 50/50 mixture acidified with 0.5% (v/v) formic acid. […] […] Incubations were performed at room temperature for 15 min. Mass spectra were recorded using reduced cone voltage (Vc=50 V) and elevated interface pressure (Pi=5 mbar) which correspond to fine-tuned instrumental settings providing sufficient ion desolvation while preserving the integrity of weak non-covalent complexes in the gas phase. Micromass MassLynx 4.1 was used for data acquisition and processing.
(§2) This protein proportion is used to calculate the bound protein, the free protein and the free peptide concentrations. The Kd is calculated by using the following equation for each protein/peptide concentration. The final Kd for each peptide is the average of the Kd at different protein/peptide ratio.

[2] = target: T1, TONSL Ankyrin Repeat Domain (ARD, …); experiment: native MS, abundance of the 1:1 protein-peptide complex, 10 µM TONSL ARD
Experimental: The mass spectrometry (MS) analysis were carried out on an electrospray time-of-flight mass spectrometer (LCT, Waters, Manchester, UK) equipped with an automated chip-based nanoESI device (Triversa Nanomate, Advion Biosciences, Ithaca, N.Y.). External calibration was done in the positive ion mode over the mass range m/z 200-6000 using the multiply charged ions produced by 0.4 μM horse heart myoglobin solution diluted in water/acetonitrile 50/50 mixture acidified with 0.5% (v/v) formic acid. […] The protein concentration was set to 10 μM and different peptide concentrations ranging from 1 to 5 molar equivalents were added. Incubations were performed at room temperature for 15 min. Mass spectra were recorded using reduced cone voltage (Vc=50 V) and elevated interface pressure (Pi=5 mbar) which correspond to fine-tuned instrumental settings providing sufficient ion desolvation while preserving the integrity of weak non-covalent complexes in the gas phase. Micromass MassLynx 4.1 was used for data acquisition and processing.
The proportion of 1:1 stoichiometry complex is calculated according to the following equation: […]

[3] = target: T1, TONSL Ankyrin Repeat Domain (ARD, …); experiment: native MS, apparent Kd
[4] = target: T2, MCM2 Histone-binding Domain (HBD, residues 61-130) (human, UniProt P49736 61-130); experiment: GST pull-down of recombinant H3-H4 and MCM2 HBD with GST-TONSL ARD, stained gel (MCM2 HBD offered together with H3-H4)
T2 construct: In the crystal it is linked to TONSL ARD by the G4 linker; also called MCM2 HBD
T2 sequence (P49736 61-130): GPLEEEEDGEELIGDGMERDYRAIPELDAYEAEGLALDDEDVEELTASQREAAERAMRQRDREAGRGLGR

[5] = target: T3, TONSL acidic stretch and ARD (aa. 450-692) (human, UniProt Q96HA7 450-692); experiment: ITC, peptide injected into TONSL (450-692); the value stands without a heading in the legend box, in the column where the other peptide has NB
T3 sequence: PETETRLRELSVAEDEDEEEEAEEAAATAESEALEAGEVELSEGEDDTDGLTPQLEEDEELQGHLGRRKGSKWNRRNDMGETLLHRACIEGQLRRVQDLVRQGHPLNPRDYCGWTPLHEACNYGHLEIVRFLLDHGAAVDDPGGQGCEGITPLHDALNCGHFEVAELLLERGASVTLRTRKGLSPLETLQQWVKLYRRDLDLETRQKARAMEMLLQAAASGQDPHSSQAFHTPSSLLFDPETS

[6] = target: T1, TONSL Ankyrin Repeat Domain (ARD, …); experiment: ITC, peptide injected into TONSL ARD
[7] = target: T1, TONSL Ankyrin Repeat Domain (ARD, …); experiment: native MS, titration Kd (constant peptide to protein ratio, decreasing protein concentration); Titration Kd; no apparent Kd given for Example 11
Experimental: as §1, §2

Kd [1]: 1.95 µM
% P1L1 [2]: 62.6%
Kd [3]: 2.2 µM
Binder: AKRHRKVLR-NH2 [Ala-Lys-Arg-His-Arg-Lys-Val-Leu-Arg-NH2, Example 12]

binding result [4]: no binding
B1: GST-TONSL ARD D559A (other)
chain: T1 sequence with D48A
notes: not shown: GST tag of the pGEX-6P-1 vector

binding result [4]: no binding
B2: GST-TONSL ARD E530A (other)
chain: T1 sequence with E19A
notes: as for B1

binding result [4]: no binding
B3: GST-TONSL ARD W563A (other)
chain: T1 sequence with W52A
notes: as for B1

binding result [4]: no binding
B4: GST-TONSL ARD E568A (other)
chain: T1 sequence with E57A
notes: as for B1

binding result [4]: no binding
B5: GST-TONSL ARD N571A (other)
chain: T1 sequence with N60A
notes: as for B1

binding result [4]: no binding
B6: GST-TONSL ARD D604A (other)
chain: T1 sequence with D93A
notes: as for B1

Kd [1]: 0.31 µM
% P1L1 [2]: 89.9%
Kd [3]: 0.1 µM
Binder: KGGAKRHRKVLR-NH2 [Lys-Gly-Gly-Ala-Lys-Arg-His-Arg-Lys-Val-Leu-Arg-NH2, Example 13]

Kd [1]: 0.96 µM
% P1L1 [2]: 73.3%
Kd [3]: 1 µM
Binder: KGGAKRHAKVLR-NH2 (H4 12-23 with Arg19 replaced by Ala) [Lys-Gly-Gly-Ala-Lys-Arg-His-Ala-Lys-Val-Leu-Arg-NH2, Example 14]

% P1L1 [2]: 81.4%
Kd [3]: 0.4 µM
Binder: KGGAARHRKVLR-NH2 (H4 12-23 with Lys16 replaced by Ala) [Lys-Gly-Gly-Ala-Ala-Arg-His-Arg-Lys-Val-Leu-Arg-NH2, Example 15]

Kd [5]: 1.5 µM
B7: histone H4 (residues 9-25) peptide, unmodified (peptide)
peptide: GLGKGGAKRHRKVLRDN
notes: Synthesised at Tufts University Core Facility; also called H4 (9-25); H4 tail (9-25)

Binder: GLGKGGAKRWRKVLRDN (His18 mutated to Trp18) [histone H4 (residues 9-25) peptide H18W]
binding result [6]: no binding (tested: molar ratio about 1.8)

Kd [7]: 0.077 µM
Binder: LGKGGAKRHRKVLRDNI (C-terminal amide (-NH2), Bought from JPT Peptide Technologies)
